Reference: publication PMC3904261 (British Journal of Pharmacology, 2013)
Bridge positions count the residues as written; N and C are the ends. Ends that are not written are not given here.

Key:
[1] = target: AMY_(1(a)) receptor (human HA-tagged CT (a) receptor with human myc-tagged RAMP1) (human) (UniProt O60894)
[2] = target: T1, CGRP receptor (calcitonin receptor-like receptor in complex with receptor activity-modifying protein 1) (human (endogenous in SK-N-MC), UniProt Q16602 23-461; O60894 27-148); test: cell-based or functional assay
[3] = target: T1, CGRP receptor (calcitonin receptor-like …); test: cell-based or functional assay; remark: listed apart in the source
[4] = target: T1, CGRP receptor (calcitonin receptor-like …); test: radioligand binding; displacement of ^125I-CGRP from SK-N-MC cell membranes by unlabelled peptides, microcentrifugation-based binding assay; [Cys^5]-CGRP and its control on another batch of SK-N-MC cells; conditions: one partner purified

T1 sequence (Q16602 23-461, chain 1 of 2): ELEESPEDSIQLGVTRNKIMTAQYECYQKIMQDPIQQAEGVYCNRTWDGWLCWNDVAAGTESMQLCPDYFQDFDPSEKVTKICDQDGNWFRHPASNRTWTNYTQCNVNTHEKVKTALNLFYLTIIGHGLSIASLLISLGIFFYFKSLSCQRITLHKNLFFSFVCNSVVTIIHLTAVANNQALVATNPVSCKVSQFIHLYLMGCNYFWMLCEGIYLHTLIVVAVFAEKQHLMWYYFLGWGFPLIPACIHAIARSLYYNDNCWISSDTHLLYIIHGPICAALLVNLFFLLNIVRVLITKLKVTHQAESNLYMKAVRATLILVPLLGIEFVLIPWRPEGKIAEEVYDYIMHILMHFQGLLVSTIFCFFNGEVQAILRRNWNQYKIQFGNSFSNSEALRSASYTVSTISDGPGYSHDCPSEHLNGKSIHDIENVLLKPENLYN
T1 sequence (O60894 27-148, chain 2 of 2): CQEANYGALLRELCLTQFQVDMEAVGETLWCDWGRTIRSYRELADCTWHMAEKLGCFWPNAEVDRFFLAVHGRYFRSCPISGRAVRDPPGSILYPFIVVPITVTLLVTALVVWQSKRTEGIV
AMY_(1(a)) receptor (human HA-tagged CT (a) receptor with human myc-tagged RAMP1) (human), sequence (O60894 whole entry, looked up): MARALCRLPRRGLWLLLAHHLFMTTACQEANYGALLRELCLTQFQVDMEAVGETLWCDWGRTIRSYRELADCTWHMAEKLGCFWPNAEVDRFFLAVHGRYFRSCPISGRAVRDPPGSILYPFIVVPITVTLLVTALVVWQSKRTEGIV

| Binder | Emax (% CGRP), cAMP production in Cos 7 cells with the AMY (1(a)) receptor [1] [% CGRP] | pEC50, cAMP production in Cos 7 cells with the AMY (1(a)) receptor [1] | pEC50, cAMP production in the second clone of SK-N-MC cells, AlphaScreen (control experiment) [2] | Emax (% CGRP), cAMP production in SK-N-MC cells [3] [% CGRP] | Emax (% CGRP), β-arrestin 2 translocation in CHO-K1 cells expressing the human CGRP receptor [3] [% CGRP] | pEC50, cAMP production in SK-N-MC cells [3] | pEC50, β-arrestin 2 translocation in CHO-K1 cells expressing the human CGRP receptor [3] | pKi [4] | pEC50, cAMP production in Cos 7 cells transfected with CLR and RAMP1 [2] | pEC50, cAMP production in SK-N-MC cells (other clone of cells, AlphaScreen; footnote: no response seen in five experiments) [3] |
| --- | --- | --- | --- | --- | --- | --- | --- | --- | --- | --- |
| ACDAATCVTHRLAGLLSRSGGVVKNNFVPTNVGSKAF-NH2 (disulfide 2-7) [[Ala^4]-CGRP] | 161 | 8.57 | 7.58 | 100 | 73 | 7.43 | 8.42 | 9.4 |  |  |
| ACDTCTCVTHRLAGLLSRSGGVVKNNFVPTNVGSKAF-NH2 (disulfide 2-7; N-terminus assumed; SMILES CC(C)C[C@H](NC(=O)CNC(=O)[C@H](C)NC(=O)[C@H](CC(C)C)NC(=O)[C@H](CCCNC(=N)N)NC(=O)[C@H](Cc1c[nH]cn1)NC(=O)[C@@H](NC(=O)[C@@H](NC(=O)[C@@H]1CSSC[C@H](NC(=O)[C@H](C)N)C(=O)N[C@@H](CC(=O)O)C(=O)N[C@@H]([C@@H](C)O)C(=O)N[C@@H](CS)C(=O)N[C@@H]([C@@H](C)O)C(=O)N1)C(C)C)[C@@H](C)O)C(=O)N[C@@H](CC(C)C)C(=O)N[C@@H](CO)C(=O)N[C@@H](CCCNC(=N)N)C(=O)N[C@@H](CO)C(=O)NCC(=O)NCC(=O)N[C@H](C(=O)N[C@H](C(=O)N[C@@H](CCCCN)C(=O)N[C@@H](CC(N)=O)C(=O)N[C@@H](CC(N)=O)C(=O)N[C@@H](Cc1ccccc1)C(=O)N[C@H](C(=O)N1CCC[C@H]1C(=O)N[C@H](C(=O)N[C@@H](CC(N)=O)C(=O)N[C@H](C(=O)NCC(=O)N[C@@H](CO)C(=O)N[C@@H](CCCCN)C(=O)N[C@@H](C)C(=O)N[C@@H](Cc1ccccc1)C(N)=O)C(C)C)[C@@H](C)O)C(C)C)C(C)C)C(C)C) [[Cys^5]-CGRP] | 50 | 7.78 |  |  | 55 |  | 8.25 | 8 | 7.9 | 7.18 |
| ACDTAACVTHRLAGLLSRSGGVVKNNFVPTNVGSKAF-NH2 (disulfide 2-7) [[Ala^6]-CGRP] | 42 | 7 | 7.39 | 72 | 43 | 6.59 | 7.74 | 8.57 |  |  |
